Reference: patent US20040110688

Assays:
factor VIIIa, P00451 = biological target: T1, factor VIIIa, P00451
T1 chain: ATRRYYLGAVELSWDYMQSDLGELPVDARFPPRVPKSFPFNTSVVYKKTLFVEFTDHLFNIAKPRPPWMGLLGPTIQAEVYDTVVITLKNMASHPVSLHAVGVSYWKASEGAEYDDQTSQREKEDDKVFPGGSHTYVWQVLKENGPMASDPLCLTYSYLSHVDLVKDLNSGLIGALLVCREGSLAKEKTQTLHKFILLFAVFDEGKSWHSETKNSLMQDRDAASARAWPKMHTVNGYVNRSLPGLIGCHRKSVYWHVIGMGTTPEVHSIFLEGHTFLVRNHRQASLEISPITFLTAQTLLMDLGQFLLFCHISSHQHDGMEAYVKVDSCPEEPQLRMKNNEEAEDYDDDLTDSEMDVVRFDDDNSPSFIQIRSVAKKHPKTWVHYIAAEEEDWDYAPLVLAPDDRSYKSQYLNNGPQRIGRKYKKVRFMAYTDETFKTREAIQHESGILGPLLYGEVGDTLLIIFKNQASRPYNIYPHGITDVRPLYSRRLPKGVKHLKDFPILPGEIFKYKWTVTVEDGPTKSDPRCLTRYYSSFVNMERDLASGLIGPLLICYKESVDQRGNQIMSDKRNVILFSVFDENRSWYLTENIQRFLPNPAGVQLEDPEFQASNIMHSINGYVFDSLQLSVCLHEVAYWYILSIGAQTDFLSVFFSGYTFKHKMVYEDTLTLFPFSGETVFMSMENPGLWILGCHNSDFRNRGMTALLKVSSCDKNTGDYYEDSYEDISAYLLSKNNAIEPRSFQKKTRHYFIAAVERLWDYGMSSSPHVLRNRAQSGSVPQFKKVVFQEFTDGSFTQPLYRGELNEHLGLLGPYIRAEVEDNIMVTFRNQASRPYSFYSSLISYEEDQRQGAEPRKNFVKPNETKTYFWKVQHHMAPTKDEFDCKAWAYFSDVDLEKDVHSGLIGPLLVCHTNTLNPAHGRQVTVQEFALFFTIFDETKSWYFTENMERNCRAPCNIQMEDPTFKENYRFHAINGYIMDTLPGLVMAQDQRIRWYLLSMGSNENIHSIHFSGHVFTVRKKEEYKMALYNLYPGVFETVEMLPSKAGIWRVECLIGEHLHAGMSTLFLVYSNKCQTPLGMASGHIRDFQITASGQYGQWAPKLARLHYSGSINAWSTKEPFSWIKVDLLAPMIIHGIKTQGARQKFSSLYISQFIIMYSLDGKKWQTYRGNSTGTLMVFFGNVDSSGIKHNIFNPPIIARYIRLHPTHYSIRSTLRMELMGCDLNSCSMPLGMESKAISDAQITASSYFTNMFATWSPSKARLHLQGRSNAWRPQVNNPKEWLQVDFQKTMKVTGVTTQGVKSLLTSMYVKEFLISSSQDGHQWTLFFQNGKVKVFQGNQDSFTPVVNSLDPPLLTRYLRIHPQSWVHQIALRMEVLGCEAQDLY

B1: IXahelixVII (protein)
chain 1: YNSGKLEEFVQGNLERECMEEKCSFEEAREVFENTERTTEFWKQYVDGDQCESNPCLNGGSCKDDINSYECWCPFGFEGKNCELDVTCNIKNGRCEQFCKNSADNKVVCSCTEGYRLAENQKSCEPAVPFPCGRVSVSQTSKLTR
chain 2: VVGGEDAKPGQFPWQVVLNGKVDAFCGGSIVNEKWIVTAAHCVETGVKITVVAGEHNIEETEHTEQKRNVIRIIPHHNYNAAINKYNHDIALLELDEPLVLNSYVTPICIADKEYTNIFLKFGSGYVSGWGRVFHKGRSALVLQYLRVPRLMTQDCLQSTKFTIYNNMFCAGFHEGGRDSCQGDSGGPHVTEVEGTSFLTGIISWGEECAMKGKYGIYTKVSRYVNWIKEKTKLT
rate of factor Xa generation, Ca2+ and phospholipid, no VIIIa (20 nM IXa, 100 nM X) (factor X, P00742): The rate of factor Xa generation in each case was 0.1 nM/min
X-activation rate, PL-minus system (14 nM VIIIa, 400 nM X) (factor VIIIa, P00451): NM
X-activation rate, PL-plus system (70 pM VIIIa, 0.5 nM IXa, 15 nM X) (factor VIIIa, P00451): NM
rate of factor X activation with phospholipid, factor VIIIa increased from 70 pM to 14 nM (factor VIIIa, P00451): for IXahelixVII it was still not measurable
